B1: NLV2 TCR alpha chain (CDR3α only) (parent)
chain: AGPMKTSYDKVI
partner: MLVPMVATV

Variants of: B1
Assay: T-Switch: Jurkat TCRβ−/− cells expressing a CDR3 saturation-mutagenesis library, stained with two peptide-HLA-A*02:01 tetramers (original and novel peptide) plus anti-CD3, FACS-sorted into four gates, gDNA sequenced
Conditions: with HLA-A*02:01 with peptide … (NLV 3-1, the novel peptide), tetramers 1 µg/mL, 30 min on ice, SP, DP and SW gates expanded about 10 days between rounds ('two to three rounds of selection' in the Methods), gate SW: higher = more of the variant in the gate that binds the novel peptide and not the original one = switched binding. Fold enrichment of the CDR3 variant in one FACS gate of a two-tetramer stain, unresolved parent, parent is a CDR3 fragment, scale: fold enrichment, numbering: sequential-on-construct, sequence starts at 1

Row | Variant | enrichment
1 | […] (CDR3 as printed); G2S derived by comparing it with the table's wild-type CDR3 AGPMKTSYDKVI | 0
2 | […] (CDR3 as printed); Y8A derived by comparing it with the table's wild-type CDR3 AGPMKTSYDKVI | 77.9
3 | […] (CDR3 as printed); S7G derived by comparing it with the table's wild-type CDR3 AGPMKTSYDKVI | 0
4 | […] (CDR3 as printed); D9C derived by comparing it with the table's wild-type CDR3 AGPMKTSYDKVI | 0
5 | […] (CDR3 as printed); K10W derived by comparing it with the table's wild-type CDR3 AGPMKTSYDKVI | 0
6 | […] (CDR3 as printed); K10Y derived by comparing it with the table's wild-type CDR3 AGPMKTSYDKVI | 0
7 | […] (CDR3 as printed); Y8M derived by comparing it with the table's wild-type CDR3 AGPMKTSYDKVI | 0
8 | […] (CDR3 as printed); G2A derived by comparing it with the table's wild-type CDR3 AGPMKTSYDKVI | 0
9 | […] (CDR3 as printed); M4G derived by comparing it with the table's wild-type CDR3 AGPMKTSYDKVI | 0
10 | […] (CDR3 as printed); T6G derived by comparing it with the table's wild-type CDR3 AGPMKTSYDKVI | 0
11 | […] (CDR3 as printed); S7M derived by comparing it with the table's wild-type CDR3 AGPMKTSYDKVI | 0
12 | […] (CDR3 as printed); P3L derived by comparing it with the table's wild-type CDR3 AGPMKTSYDKVI | 0
13 | […] (CDR3 as printed); K5E derived by comparing it with the table's wild-type CDR3 AGPMKTSYDKVI | 0
14 | […] (CDR3 as printed); I12S derived by comparing it with the table's wild-type CDR3 AGPMKTSYDKVI | 0
15 | […] (CDR3 as printed); K5A derived by comparing it with the table's wild-type CDR3 AGPMKTSYDKVI | 0
16 | […] (CDR3 as printed); P3M derived by comparing it with the table's wild-type CDR3 AGPMKTSYDKVI | 0
17 | […] (CDR3 as printed); T6P derived by comparing it with the table's wild-type CDR3 AGPMKTSYDKVI | 0
18 | […] (CDR3 as printed); D9E derived by comparing it with the table's wild-type CDR3 AGPMKTSYDKVI | 0
19 | […] (CDR3 as printed); Y8D derived by comparing it with the table's wild-type CDR3 AGPMKTSYDKVI | 0.474
20 | […] (CDR3 as printed); G2C derived by comparing it with the table's wild-type CDR3 AGPMKTSYDKVI | 0
21 | […] (CDR3 as printed); Y8N derived by comparing it with the table's wild-type CDR3 AGPMKTSYDKVI | 0
22 | […] (CDR3 as printed); Y8K derived by comparing it with the table's wild-type CDR3 AGPMKTSYDKVI | 0
23 | […] (CDR3 as printed); A1W derived by comparing it with the table's wild-type CDR3 AGPMKTSYDKVI | 0

Row | Variant | enrichment
24 | […] (CDR3 as printed); I12D derived by comparing it with the table's wild-type CDR3 AGPMKTSYDKVI | 0
25 | […] (CDR3 as printed); P3I derived by comparing it with the table's wild-type CDR3 AGPMKTSYDKVI | 0
26 | […] (CDR3 as printed); A1E derived by comparing it with the table's wild-type CDR3 AGPMKTSYDKVI | 0
27 | […] (CDR3 as printed); T6H derived by comparing it with the table's wild-type CDR3 AGPMKTSYDKVI | 0
28 | […] (CDR3 as printed); D9I derived by comparing it with the table's wild-type CDR3 AGPMKTSYDKVI | 0
29 | […] (CDR3 as printed); D9L derived by comparing it with the table's wild-type CDR3 AGPMKTSYDKVI | 0
30 | […] (CDR3 as printed); A1G derived by comparing it with the table's wild-type CDR3 AGPMKTSYDKVI | 0
31 | […] (CDR3 as printed); S7P derived by comparing it with the table's wild-type CDR3 AGPMKTSYDKVI | 0
32 | […] (CDR3 as printed); Y8C derived by comparing it with the table's wild-type CDR3 AGPMKTSYDKVI | 0
33 | […] (CDR3 as printed); K10I derived by comparing it with the table's wild-type CDR3 AGPMKTSYDKVI | 0
34 | […] (CDR3 as printed); I12Y derived by comparing it with the table's wild-type CDR3 AGPMKTSYDKVI | 0
35 | […] (CDR3 as printed); K10E derived by comparing it with the table's wild-type CDR3 AGPMKTSYDKVI | 0.402
36 | […] (CDR3 as printed); V11H derived by comparing it with the table's wild-type CDR3 AGPMKTSYDKVI | 0
37 | […] (CDR3 as printed); K5S derived by comparing it with the table's wild-type CDR3 AGPMKTSYDKVI | 0
38 | […] (CDR3 as printed); D9N derived by comparing it with the table's wild-type CDR3 AGPMKTSYDKVI | 0
39 | […] (CDR3 as printed); Y8R derived by comparing it with the table's wild-type CDR3 AGPMKTSYDKVI | 0
40 | […] (CDR3 as printed); V11M derived by comparing it with the table's wild-type CDR3 AGPMKTSYDKVI | 0
41 | […] (CDR3 as printed); D9R derived by comparing it with the table's wild-type CDR3 AGPMKTSYDKVI | 0
42 | […] (CDR3 as printed); T6F derived by comparing it with the table's wild-type CDR3 AGPMKTSYDKVI | 0
43 | […] (CDR3 as printed); T6I derived by comparing it with the table's wild-type CDR3 AGPMKTSYDKVI | 0
44 | […] (CDR3 as printed); K5P derived by comparing it with the table's wild-type CDR3 AGPMKTSYDKVI | 0
45 | […] (CDR3 as printed); Y8E derived by comparing it with the table's wild-type CDR3 AGPMKTSYDKVI | 52.6
46 | […] (CDR3 as printed); M4F derived by comparing it with the table's wild-type CDR3 AGPMKTSYDKVI | 0

Row | Variant | enrichment
47 | […] (CDR3 as printed); I12T derived by comparing it with the table's wild-type CDR3 AGPMKTSYDKVI | 0
48 | […] (CDR3 as printed); M4K derived by comparing it with the table's wild-type CDR3 AGPMKTSYDKVI | 0
49 | […] (CDR3 as printed); I12M derived by comparing it with the table's wild-type CDR3 AGPMKTSYDKVI | 0
50 | […] (CDR3 as printed); G2Q derived by comparing it with the table's wild-type CDR3 AGPMKTSYDKVI | 0
51 | […] (CDR3 as printed); Y8F derived by comparing it with the table's wild-type CDR3 AGPMKTSYDKVI | 0
52 | […] (CDR3 as printed); K5I derived by comparing it with the table's wild-type CDR3 AGPMKTSYDKVI | 0
53 | […] (CDR3 as printed); P3N derived by comparing it with the table's wild-type CDR3 AGPMKTSYDKVI | 0
54 | […] (CDR3 as printed); M4S derived by comparing it with the table's wild-type CDR3 AGPMKTSYDKVI | 0
55 | […] (CDR3 as printed); K10F derived by comparing it with the table's wild-type CDR3 AGPMKTSYDKVI | 0
56 | […] (CDR3 as printed); V11A derived by comparing it with the table's wild-type CDR3 AGPMKTSYDKVI | 0
57 | […] (CDR3 as printed); G2H derived by comparing it with the table's wild-type CDR3 AGPMKTSYDKVI | 0
58 | […] (CDR3 as printed); S7W derived by comparing it with the table's wild-type CDR3 AGPMKTSYDKVI | 0
59 | […] (CDR3 as printed); P3V derived by comparing it with the table's wild-type CDR3 AGPMKTSYDKVI | 0.657
60 | […] (CDR3 as printed); M4I derived by comparing it with the table's wild-type CDR3 AGPMKTSYDKVI | 0
61 | […] (CDR3 as printed); D9S derived by comparing it with the table's wild-type CDR3 AGPMKTSYDKVI | 0
62 | […] (CDR3 as printed); K10D derived by comparing it with the table's wild-type CDR3 AGPMKTSYDKVI | 0
63 | […] (CDR3 as printed); P3G derived by comparing it with the table's wild-type CDR3 AGPMKTSYDKVI | 0
64 | […] (CDR3 as printed); K10A derived by comparing it with the table's wild-type CDR3 AGPMKTSYDKVI | 0
65 | […] (CDR3 as printed); D9V derived by comparing it with the table's wild-type CDR3 AGPMKTSYDKVI | 0
66 | […] (CDR3 as printed); G2T derived by comparing it with the table's wild-type CDR3 AGPMKTSYDKVI | 0
67 | […] (CDR3 as printed); G2E derived by comparing it with the table's wild-type CDR3 AGPMKTSYDKVI | 0
68 | […] (CDR3 as printed); A1P derived by comparing it with the table's wild-type CDR3 AGPMKTSYDKVI | 0
69 | […] (CDR3 as printed); A1N derived by comparing it with the table's wild-type CDR3 AGPMKTSYDKVI | 0

Source: publication PMC13397619
